This is an account of results in patent publication US20240254166A1 (University of California, published 2024).

The target in this experiment is T1, T-Alb-VFP (human, UniProt P02768 25-609).
T1 construct: mature;domain: transmembrane domain; also called tethered Alb
The experiment can be described thus: FRET (donor photobleaching), HEK293T cells.

B1: CiHv1-TFP (other)
chain: MEGDNCNKSRHKSHNMINPNYASVRCTQPLPSVIQLRSRNKMIGITEDPSSDSEPVSSNQPLLLTNLSYEVHTFNDNNNHERPAPQEQSTQNTMISMQSEQKSDRFTASNLGMFQYMKFEIGEDGDDHEEEAILTNREKLRHILHSKPIHVAIIVLVVLDSFLVVGELLIDLKVIIVPHGNPAPEILHGFSLSILSIFMVEIALKIIADHRHFIHHKVEVLDAVVVVISFGVDIALIFVGESEALAAIGLLVILRLWRVFRIINGIIVTVKTKADDRVHEIKKKNSELELQIHNLEEKLSQKEQDMSRLHEILRCNNIDIPPTVPLTTSVQIHSTTTASADV
notes: whole, on cells
Turning to B1, the binding result was “no binding”.
